Data on 1 molecule can be found in article PMC11758950.

The assay has as its target T1, ELFN1-myc (mouse) (UniProt Q8C8T7).
T1 sequence: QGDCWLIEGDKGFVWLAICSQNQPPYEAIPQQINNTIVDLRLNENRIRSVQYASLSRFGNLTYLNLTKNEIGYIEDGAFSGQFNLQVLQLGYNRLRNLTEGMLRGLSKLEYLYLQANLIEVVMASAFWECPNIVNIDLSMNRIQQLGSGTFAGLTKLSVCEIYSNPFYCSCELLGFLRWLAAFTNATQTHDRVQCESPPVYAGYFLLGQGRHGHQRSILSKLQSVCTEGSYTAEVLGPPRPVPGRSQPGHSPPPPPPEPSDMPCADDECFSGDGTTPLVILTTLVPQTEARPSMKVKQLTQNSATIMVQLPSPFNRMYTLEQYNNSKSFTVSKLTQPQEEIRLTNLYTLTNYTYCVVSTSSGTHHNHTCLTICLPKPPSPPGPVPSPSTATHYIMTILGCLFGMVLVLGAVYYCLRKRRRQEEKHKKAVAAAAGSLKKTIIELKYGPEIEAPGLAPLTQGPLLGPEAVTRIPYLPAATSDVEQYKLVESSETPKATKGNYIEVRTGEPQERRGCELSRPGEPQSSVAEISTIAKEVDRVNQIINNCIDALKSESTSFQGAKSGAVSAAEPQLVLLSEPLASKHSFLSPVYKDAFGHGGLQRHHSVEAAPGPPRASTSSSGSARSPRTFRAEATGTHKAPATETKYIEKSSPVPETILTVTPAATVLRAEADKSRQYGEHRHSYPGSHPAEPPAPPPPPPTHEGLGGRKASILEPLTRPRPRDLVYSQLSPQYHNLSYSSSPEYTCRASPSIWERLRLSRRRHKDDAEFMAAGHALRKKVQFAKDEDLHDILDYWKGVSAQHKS

B1: ELFN1Δ452-Venus (domain or fragment)
chain: QGDCWLIEGDKGFVWLAICSQNQPPYEAIPQQINNTIVDLRLNENRIRSVQYASLSRFGNLTYLNLTKNEIGYIEDGAFSGQFNLQVLQLGYNRLRNLTEGMLRGLSKLEYLYLQANLIEVVMASAFWECPNIVNIDLSMNRIQQLGSGTFAGLTKLSVCEIYSNPFYCSCELLGFLRWLAAFTNATQTHDRVQCESPPVYAGYFLLGQGRHGHQRSILSKLQSVCTEGSYTAEVLGPPRPVPGRSQPGHSPPPPPPEPSDMPCADDECFSGDGTTPLVILTTLVPQTEARPSMKVKQLTQNSATIMVQLPSPFNRMYTLEQYNNSKSFTVSKLTQPQEEIRLTNLYTLTNYTYCVVSTSSGTHHNHTCLTICLPKPPSPPGPVPSPSTATHYIMTILGCLFGMVLVLGAVYYCLRKRRRQEEKHKK
With B1, the cell membrane enrichment of ELFN1Δ452-Venus (membrane against proximal cytosolic pixel intensity) with co-expression of ELFN1-myc (median 92.50% under control conditions) amounted to 129% and the percentage of cells with membrane enrichment of ELFN1Δ452-Venus when co-expressed with ELFN1-myc (0.000 without ELFN1-myc); live-cell confocal microscopy, HEK293 was found to be 33.4%.
